The values below come from patent US20210206841A1 (RESEARCH INSTITUTE AT NATIONWIDE CHILDREN S HOSPITAL, published 2021).

T1: tip-chimeric peptide IhfA5-mIhfB4NTHI (nontypeable Haemophilus influenzae …)
T1 construct: also called IHF(NTHI) tip chimeric peptide; IHFNTHI tip chimeric peptide
T1 peptide: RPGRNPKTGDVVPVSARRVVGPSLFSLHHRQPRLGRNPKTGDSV

T2: native IHFNTHI (integration host factor of nontypeable Haemophilus influenzae) (nontypeable Haemophilus influenzae …, UniProt P43723 1-96; P43724 1-94)
T2 construct: also called NTHI IHF
T2 sequence 1: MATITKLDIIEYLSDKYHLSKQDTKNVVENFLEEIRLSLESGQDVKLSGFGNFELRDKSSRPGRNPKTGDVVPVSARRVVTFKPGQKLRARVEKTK
T2 sequence 2: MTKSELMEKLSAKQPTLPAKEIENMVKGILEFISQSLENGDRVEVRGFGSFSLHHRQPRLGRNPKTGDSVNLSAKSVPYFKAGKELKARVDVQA

B1: humanized anti-tip monoclonal antibody, heavy chain SEQ ID NO: 3 and light chain SEQ ID NO: 7 (antibody, V domains shown)
VH: EVKLVQSGAEVKKPGASVKVSCKASGFTFRTYAMSWVRQAPGQRLEWVATIGSDRRHTYYPDKFQGRVTITRDNAKNTLYMELSSLRSEDTAVYYCVGPYDGYYGEFDYWGQGTLVTVSS
VL: DVVMTQSPLSLPVTLGQPASISCRSSQSLLDSDGKTFLNWLQQRPGQSPRRLIYLVSKLDSGVPDRFSGSGSGTDFTLKISRVEAEDVGVYYCWQGTHFPYTFGQGTKLEIKR
notes: also called H10212 (1F8.F1 Humanized HC3) + L10210 (1F8.F1 Humanized LC1)
B2: humanized anti-tip monoclonal antibody, heavy chain SEQ ID NO: 1 and light chain SEQ ID NO: 7 (antibody, V domains shown)
VH: EVKLVESGGGLVQPGGSLRLSCAASGFTFRTYAMSWVRQAPGKGLEWVATIGSDRRHTYYPDSVKGRFTISRDNAKNTLYLQMNSLRAEDTAVYYCVGPYDGYYGEFDYWGQGTLVTVSS
VL: B1 VL
notes: also called HuTipMab; TP-21949
B3: humanized anti-tip monoclonal antibody, heavy chain SEQ ID NO: 1 and light chain SEQ ID NO: 8 (antibody, V domains shown)
VH: B2 VH
VL: B1 VL with L59R
notes: also called H10210 (1F8.F1 Humanized HC1) + L10211 (1F8.F1 Humanized LC2)
B4: humanized anti-tip monoclonal antibody, heavy chain SEQ ID NO: 2 and light chain SEQ ID NO: 8 (antibody, V domains shown)
VH: B2 VH with K3Q, A75S
VL: B1 VL with L59R
notes: also called H10211 (1F8.F1 Humanized HC2) + L10211 (1F8.F1 Humanized LC2)
B5: humanized anti-tip monoclonal antibody, heavy chain SEQ ID NO: 2 and light chain SEQ ID NO: 7 (antibody, V domains shown)
VH: B2 VH with K3Q, A75S
VL: B1 VL
notes: also called H10211 (1F8.F1 Humanized HC2) + L10210 (1F8.F1 Humanized LC1)

Positions count from the first letter of the chain named.

The target in the first assay is T1, tip-chimeric peptide IhfA5-mIhfB4NTHI. The assay can be described thus: direct ELISA #1, peptide coated (curves not reaching equilibrium). In general terms: An ELISA detects its analyte on a solid surface through an enzyme-linked reagent.
B1 yielded an EC50 of 0.075 µg/mL.
Same read-out and setting: next, B2: 0.06 µg/mL; B3: 0.066 µg/mL.
Same read-out and setting: the result for B4 reads 0.055 µg/mL; that for B5, 0.049 µg/mL.

Another assay addresses T2, native IHFNTHI (integration host factor …). The assay can be described thus: SPR Biacore 3000, HuMab immobilized, IHFNTHI as analyte. Background: SPR reads the build-up and loss of mass on a sensor chip optically.
In turn, B1 registered a Kd of 6 nM, a koff of 0.0004 s⁻¹ and a kon of 66000 M⁻¹ s⁻¹.
For B2, in that order: 10 nM, 1.4e-05 s⁻¹ and 1400 M⁻¹ s⁻¹.
For B3, in that order: 0.2 nM, 0.00032 s⁻¹ and 1.4e+06 M⁻¹ s⁻¹.
For B4 the same measures were 9 nM, 0.00059 s⁻¹ and 70000 M⁻¹ s⁻¹.
B5 showed a Kd of 0.6 nM, a koff of 0.0004 s⁻¹ and a kon of 640000 M⁻¹ s⁻¹.

The next assay deals with T1, tip-chimeric peptide IhfA5-mIhfB4NTHI. The assay can be described thus: SPR Biacore 3000, peptide immobilized, HuMab as analyte.
B1 displayed a Kd of 8 nM, a koff of 0.0004 s⁻¹ and a kon of 48000 M⁻¹ s⁻¹.
For B2, in that order: 7 nM, 0.00022 s⁻¹ and 31000 M⁻¹ s⁻¹.
For B3 the same measures were 0.3 nM, 1.1e-05 s⁻¹ and 42000 M⁻¹ s⁻¹.
For B4 the same measures were 13 nM, 0.00028 s⁻¹ and 22000 M⁻¹ s⁻¹.
In turn, B5 gave a Kd of 144 nM, a koff of 0.0026 s⁻¹ and a kon of 18000 M⁻¹ s⁻¹.

The next assay has the same target. Nature of the assay: SPR Biacore 3000, HuMab immobilized, peptide as analyte.
As to B1, the Kd was 29 nM, the koff worked out at 0.0016 s⁻¹ and the kon came to 54000 M⁻¹ s⁻¹.
The molecule B2 had a Kd of 76 nM, a koff of 0.00034 s⁻¹ and a kon of 4500 M⁻¹ s⁻¹.
For B3 the same measures were 21 nM, 0.00037 s⁻¹ and 17000 M⁻¹ s⁻¹.
In turn, B4 registered a Kd of 257 nM, a koff of 7.7e-05 s⁻¹ and a kon of 300 M⁻¹ s⁻¹.
For B5, in that order: 527 nM, 0.00015 s⁻¹ and 280 M⁻¹ s⁻¹.

A further assay addresses T2, native IHFNTHI (integration host factor …). Nature of the assay: SPR Biacore 3000, IHFNTHI immobilized, HuMab as analyte.
B1 showed a Kd of 825 nM, a koff of 0.00011 s⁻¹ and a kon of 140 M⁻¹ s⁻¹.
For B2 the same measures were 17 nM, 9e-05 s⁻¹ and 5400 M⁻¹ s⁻¹.
For B3 the same measures were 40 nM, 0.006 s⁻¹ and 150000 M⁻¹ s⁻¹.
For B4, in that order: 354 nM, 0.00015 s⁻¹ and 420 M⁻¹ s⁻¹.
B5 showed a Kd of 4400 nM and a koff of 0.0014 s⁻¹.

For another assay, the target named is T1, tip-chimeric peptide IhfA5-mIhfB4NTHI. Nature of the assay: direct ELISA #2, peptide coated (curves reaching equilibrium).
Turning to B1, the EC50 is 0.0858 µg/mL.
The same measure, in the same setting: next, B2: 0.0704 µg/mL; B3: 0.0644 µg/mL; B4: 0.0402 µg/mL.
Turning to B5, the EC50 came to 0.062 µg/mL.

The term EC50 denotes the concentration that produces a half-maximal response. A higher EC50 goes with lower potency in that assay. As usually defined, the Kd is the equilibrium constant for the complex coming apart. A low value points to higher affinity. The koff is a measure of how fast the partners let go of each other. Usually kon stands for the second-order rate constant of association.
